Measurements: patent US20150246945A1 (JAPANESE FOUNDATION FOR CANCER RESEARCH, published 2015)
Ends that are not written are not given here. * marks the point of attachment. Biotin = O=C1N[C@H]2[C@H](CS[C@H]2CCCCC(=O)*)N1

Tests used:
[1] = target: T1, EpCAM, whole protein on cells (HT-29, MCF-7, 293T transfected with full-length EpCAM plasmid pkk196) or on … (UniProt P16422 24-314, limits assumed); experiment: pull-down of HT-29 exosomes on peptide-loaded streptavidin beads, Western blot with anti-EpCAM
T1 construct: whole, on cells; Used for both cell-surface EpCAM and EpCAM carried on HT-29 exosomes; the assay field says which; also called EpCAM on HT-29; EpCAM-expressing cells
T1 sequence (looked up): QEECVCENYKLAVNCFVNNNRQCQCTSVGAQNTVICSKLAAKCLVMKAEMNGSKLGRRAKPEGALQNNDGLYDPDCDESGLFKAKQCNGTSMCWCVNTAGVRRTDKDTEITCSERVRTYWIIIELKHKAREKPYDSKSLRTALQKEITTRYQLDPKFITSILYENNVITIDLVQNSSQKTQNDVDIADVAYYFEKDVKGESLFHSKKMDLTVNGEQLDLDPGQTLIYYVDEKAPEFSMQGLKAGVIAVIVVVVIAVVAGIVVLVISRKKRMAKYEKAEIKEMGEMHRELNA
Experimental: 250 μg of streptavidin-magnetic beads (Dynabeads® M-280 streptavidin, VERITAS Corp.) in TBS containing 2% BSA was added to 20 μg of the biotinylated Ep114 peptide and shaken at room temperature for 30 minutes, followed by washing with TBS. Beads reacted without the peptide were used as a control. The anti-Ep114 antibody was added to the beads in TBST and reacted at room temperature for 1 hour. After washing with TBS, the beads were collected. The collected beads were heated at 95° C. for 5 minutes in a SDS sample buffer. After Western-blotting, the anti-Ep114 antibody was detected using HRP-labeled anti-rabbit antibodies.
The binding to exosomes was confirmed using the Western blot system in the similar method as in the preceding paragraph 1. Specifically, 20 μg of the biotinylated Ep114 peptide, the PE183 peptide, the PE184 peptide, or the PE185 peptide was bound to 250 μg of streptavidin-magnetic beads and then reacted with exosomes isolated from HT-29 cells as EpCAM-positive cells, followed by Western blot to detect the exosomes using anti-EpCAM polyclonal antibodies (see the left panel of FIG. 5C).

[2] = target: T2, purified EpCAM (extracellular domain with myc and His tags at the C terminus, expressed in HEK-293T cells) (UniProt P16422 24-265, limits assumed); experiment: pull-down of EpCAM on peptide-loaded streptavidin magnetic beads, Western blot
T2 construct: extracellular domain; also called epithelial cell adhesion molecule; CD326
T2 sequence (looked up): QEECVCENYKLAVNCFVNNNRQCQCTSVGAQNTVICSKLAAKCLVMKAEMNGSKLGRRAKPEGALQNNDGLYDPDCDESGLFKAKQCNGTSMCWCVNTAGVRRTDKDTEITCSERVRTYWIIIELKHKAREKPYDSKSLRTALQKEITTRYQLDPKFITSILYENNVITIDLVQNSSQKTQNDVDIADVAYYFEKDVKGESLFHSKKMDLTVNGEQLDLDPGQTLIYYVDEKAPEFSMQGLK

[3] = target: T2, purified EpCAM (extracellular domain …); experiment: ELISA, biotin peptide on streptavidin plate, purified EpCAM added
Experimental: was immobilized onto an ELISA plate via streptavidin, and purified EpCAM was added thereto in an amount of 0, 10, or 100 ng and reacted. After washing, bound EpCAM was detected using the anti-EpCAM antibody. A biotin-modified peptide PE194 (Ac-[…](biotin)-NH2) of the L3A variant (non-EpCAM-binding variant) was used as a control.

[4] = target: T2, purified EpCAM (extracellular domain …); experiment: titer of phages bound to EpCAM-immobilized beads (TALON beads; Protein G beads with Vu-1D9), both conditions
Experimental: (§1) Under Condition 1, each phage (in FIG. 1C, rows 1 and 2 represent the Ep133-displaying phage, rows 3 and 4 represent the Ep301-displaying phage, and rows 5 and 6 represent the phage 447 displaying no peptide) was added at a titer of 1×10¹⁰ to 0.4 mg of TALON® beads immobilized 1 μg of EpCAM (FIG. 1C, rows 1, 3, and 5,indicating with plus sign) or the beads alone (FIG. 1C, rows 2, 4, and 6, indicating with minus sign). After washing with TBST five times, the titers of bound phages were measured.
as §1, with “2, 2.4 μg of anti-EpCAM monoclonal antibody (Vu-1D9, Abcam plc.) was immobilized on Protein G beads, and 3 μg of purified EpCAM was immobilized thereon via the antibody. Each” for “1, each”, “the” for “0.4 mg of TALON®”, “immobilized” for “immobilized 1 μg of”, “5, indicating” for “5,indicating with”, “once,” for “five times,”

[5] = target: T1, EpCAM, whole protein on cells (HT-29, …); experiment: staining of HT-29 spheroids with FITC peptide, fluorescence microscopy
Experimental: (§2) The HT-29 cells as EpCAM-expressing cells were cultured by spheroid culture method as follows: 4×10⁵ cells are suspended in 3 ml of D-MEM/F-12 medium (Dulbecco's Modified n Eagle Medium:Nutrient Mixture 12, 1:1 mixture) (Gibco/Life Technologies Inc.) supplemented with 20 ng/ml human EGF (Miltenyi Biotec K.K.), 20 ng/ml human […] (Miltenyi Biotec K.K.), B-27 (Gibco/Life Technologies Inc.), penicillin, and streptomycin and inoculated to EZ-Sphere®, a Petri dish of 3.5 cm in diameter coated with MPC polymer. After static culture for 72 hours, the cells were collected while the medium was suspended by pipetting. The cells were stained with the FITC-modified peptide and observed under a fluorescence microscope. The staining was carried out by adding 4 μM peptide into a McCoy's 5A medium and standing still at room temperature for 30 minutes.
When these control peptides were used at a concentration of 4 μM, no EpCAM staining was observed (data not shown).

[6] = target: T2, purified EpCAM (extracellular domain …); experiment: fluorescence depolarization, FITC-modified peptide
Experimental: Each FITC-modified EpCAM peptide or control peptide was suspended at a concentration of approximately 100 μM in PBS. After centrifugation, the supernatant was collected and diluted 10-fold, and the absorbance was measured at 495 nm From the measurement value, the molar concentration of the peptide was determined using the formula of Beer-Lambert of the following expression 1: […]
EpCAM is diluted with PBS into several concentrations from 0 until reaching equilibrium (40 nM for the Ep133 peptide), and the FITC-modified peptide whose precise concentration has been measured by the aforementioned method is added to the dilutions thus prepared. The sample was left at a temperature for measurement for 30 minutes or longer and subjected to polarization measurement using a spectrofluorometer FP-6500 (JASCO Corp.) equipped with an automatic polarization measurement unit (JASCO Corp., APH-103). Kd was estimated by curve fitting according to the Hill equation.
The dissociation constants of the EpCAM-binding peptide Ep301 (FIG. 2(D)) disclosed in Patent Literature 2 and Ep301 control (FIG. 2(E)), which was a control peptide derived from Ep301 by the substitution of cysteine at positions 5 and 10 by serine, and a sequence of EpCAM from residue 106 to 119 (FIG. 2(F)) having partial homology to EpCAM-binding peptides were measured similarly.

[7] = target: T1, EpCAM, whole protein on cells (HT-29, …); experiment: staining of HT-29 spheroids with FITC peptide
Experimental: as §2
Next, the results of staining using the L3A variant peptide as a control are shown.

B1: PE183 peptide (peptide)
peptide: Ac-KHLQCVRNICWSPPPPPPKK(Biotin)-NH2
modifications: not fully specified (bridges); printed as Ac-KHLQCVRNICWSPPPPPPKK(biotin)-NH2; cysteine pairing not given here
B1: binds [1]; binds [2].

B2: biotin-modified peptide PE194 of the L3A variant (peptide)
peptide: Ac-KHAQCVRNICWSPPPPPPKK(Biotin)-NH2
modifications: cysteine pairing not given here
notes: L3A control of PE183
B2: no binding (tested: 100 ng EpCAM) [3].

B3: Ep133-displaying phage (peptide)
chain: EHLHCLGSLCWP
modifications: not fully specified (bridges); cysteine pairing not given here; also: displayed on phage
notes: also called cloned phage displaying Ep133; not shown: fusion and linker not described
For B3, the “fold ability to bind compared with Ep301-displaying phage” value [4] was ≥ 10 times.

B4: Ep133 control (peptide)
peptide: EHLHSLGSLSWP
modifications: also: FITC-modified, position not given here
notes: Ep133 with cysteine at positions 5 and 10 substituted by serine
B4: no binding (tested: 0.4 µM; also 4 µM (data not shown)) [5]; no binding [6].

B5: Ep114 control peptide in which cysteine at positions 5 and 10 is substituted by serine (peptide)
peptide: KHLQSVRNISWS
modifications: also: FITC-labeled, position not given here
B5: no binding (tested: 0.4 µM; also 4 µM (data not shown)) [5].

B6: L3A variant peptide of Ep114, FITC-labeled (peptide)
peptide: KHAQCVRNICWS
modifications: not fully specified (bridges); cysteine pairing not given here; also: FITC-labeled, position not given here
notes: Free labeled peptide used as a control in cell staining; also called L3A control labeled peptide; control peptide
B6: no binding [7].
